For the data set, the system named is MS2 coat protein. The data set can be described thus: apparent KD of MS2 coat protein; designed switch direction (-1 OFF switch, 1 ON switch): -1; higher = weaker reporter binding. Put shortly:
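The buffer was Tris-HCl pH 7.5 with KCl, MgCl2, BSA, DTT, tRNA and Tween-20. In it, SNAP-549-labelled MS2 coat protein was titrated in doubling steps from 0.7 or 1.5 nM to 3 µM over chip-bound RNA switches transcribed by stalled E. coli RNA polymerase on Illumina chips. Apparent KD is the per-design median over clusters of curve fits to normalised fluorescence.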

The mark [1] stands for this setting: input ligand: microRNA oligo, concentration not stated.
The mark [2] stands for this setting: Eterna round: R95, input ligand: microRNA oligo, concentration not stated.
Setting [3] is: Eterna round: R95, input ligand: FMN 200 uM.
The mark [4] stands for this setting: Eterna round: R95, input ligand: none.

“GUCAGCUCGUGAGGAUAUACAUGAGGAUCACCCAUGUGGUCAUUAGCAGCUUCGGCUGCAUUAAUGUAGAAGGCACGAGCUGAC [ENG2/8-A1] (Eterna round: R96, puzzle: Exclusion NG 2)”: the “apparent KD of MS2 coat protein” value is, setting by setting: (input ligand: FMN 200 uM) 635 nM; under setting [1], 690 nM; (input ligand: none) 1140 nM.

Take “GUGUACGGAGGAUAUGCUGGAAUCUAGCGAAGCUAGGUUCCACAUGAGGAUCACCCAUGUAGAAGGCUGUACAC [Dot plot directed A v5] (puzzle: Exclusion 2)”: the “apparent KD of MS2 coat protein” value under setting [2] was found to be 21.1 nM.

As to “UAGGUGUGAGGAUAUGGUAAAGAAAAGAUGAUGAAAGAACUCCAGAAGGCACAUGAGGAUCACCCAUGUAGAUG [Mat - Exclusion 4 - Mod of JL - D32] (puzzle: Exclusion 4)”, under setting [2], the “apparent KD of MS2 coat protein” value worked out at 28.7 nM.

Take “GCUUGGCGAGGAUAUACAUGAGGAUCACCCAUGUGAGAGAAUAAAGUGAGGAAGAAAAGUAGAAGGCGCUGAGG [Mat - Exclusion 3 - Mod of Salish D58] (puzzle: Exclusion 3)”: the “apparent KD of MS2 coat protein” value worked out at 199 nM under setting [3], 40.4 nM under setting [2] and 40.4 nM under setting [4].

Regarding “AGUAACCGUCACGAAAGUGAUGGUUACACAAGUGUAAUAACAUGAGGAUCACCCAUGUCCUCAUUUGCUCGUUUUAU [Sensor 3 - 37] (puzzle: Sensor v3, turn-off variant 2)”, the “apparent KD of MS2 coat protein” value is 45.1 nM under setting [3], 144 nM under setting [2] and 140 nM under setting [4].

Regarding “GCGUACUGAGGAUAUACAUGAGGAUCACCCAUGUGAAGAAGAAAGUAGUGAUGGUUGGGUAGAAGGCAGUAUGC [JR_Ex3_Sub064] (Eterna round: R97, puzzle: Exclusion 3)”, the “apparent KD of MS2 coat protein” value runs as follows: (input ligand: FMN 200 uM) 103 nM; (input ligand: none) 98.5 nM.

Consider “AUAAAGUCAGGAUAUCGAAGUGAGUGGUGGAGGGUAAGGUACGAGAAGGGACAUGAGGAUCACCCAUGUAGGAA [JR_Exclusion4)Sub005] (puzzle: Exclusion 4)”, for which the “apparent KD of MS2 coat protein” value under setting [3] came out at 24 nM, the “apparent KD of MS2 coat protein” value under setting [2] was found to be 27.2 nM and the “apparent KD of MS2 coat protein” value under setting [4] came out at 29.5 nM.

In the case of “UGGUGGAAGCAGGAUAUGCUUGUAUUAUUGAUUGCAGAAGGGCUAACAUGAGGAUCACCCAUGUAAGAGGUGUU [JR_E6_Sub056] (puzzle: Exclusion 6)”, the “apparent KD of MS2 coat protein” value under setting [3] was found to be 303 nM, the “apparent KD of MS2 coat protein” value under setting [2] turned out to be 289 nM and the “apparent KD of MS2 coat protein” value under setting [4] was 327 nM.

Turning to “GUCCUACAUGAGGAUCACCCAUGUGAGGAUAUGGUUUCGCUGGCCGUAGCCAGUGGAACCAGAAGGCGCAUGAU [Mat - Exclusion 1 - JL Mod - D1] (Eterna round: R97, puzzle: Exclusion 1)”, the “apparent KD of MS2 coat protein” value (input ligand: FMN 200 uM) came to 106 nM and the “apparent KD of MS2 coat protein” value (input ligand: none) was 25.9 nM.

On to “ACAUGAGGAUCACCCAUGUCAGGUGGGUCCUCUCCGGCUGUUGAGGAUAUAGUCCGGUAUCCGCGCUAGAAGGUGAGGGCUGGC [Aenatbe mod 16] (Eterna round: R96, puzzle: Exclusion NG 3)”, for which the “apparent KD of MS2 coat protein” value was 42.8 nM (input ligand: FMN 200 uM), 23.8 nM under setting [1] and 38.4 nM (input ligand: none).

Take “AAUACAAGCUAUUGAUCCCACAUGAGGAUCACCCAUGUUCCUGGCCGUGAGGCUAGGUAAACAAUAGCUCGUCUUAU [Sensor-V1 #42] (Eterna round: R97, puzzle: Sensor, turn-off variant 1)”: the “apparent KD of MS2 coat protein” value came to 91.2 nM (input ligand: FMN 200 uM) and 99.8 nM (input ligand: none).

For the sequence “CAGGGCAUGCGAGGAUAUAGCAACAUGAGGAUCACCCAUGUAUAAGGGUGUCCAAGGCAUGCGCGCUAGAAGGCGCUGGUUCUC [Gemadi] (Eterna round: R96, puzzle: Exclusion NG 2)”, the “apparent KD of MS2 coat protein” value reads like this: (input ligand: FMN 200 uM) 343 nM; under setting [1], 64.6 nM; (input ligand: none) 116 nM.

Take “AAUACAAGCUAUUGAUCCCACAUGAGGAUCACCCAUGUAGAUGGCGGUGACACCUCCAUUACGAUAGCUCGUCUUAU [Sensor-V1 #57] (Eterna round: R97, puzzle: Sensor, turn-off variant 1)”: the “apparent KD of MS2 coat protein” value came out at 321 nM (input ligand: FMN 200 uM) and 347 nM (input ligand: none).

For the sequence “AGCUGUGGCCGAGGAUAUCACGAACCAUGGAAAACCAUGGAACUCACACAUGAGGAUCACCCAUGUGAGAAGGCGGUCUCAGCA [Eli eng2 - 021] (Eterna round: R96, puzzle: Exclusion NG 2)”, the “apparent KD of MS2 coat protein” value by setting is: (input ligand: FMN 200 uM) 16.3 nM; under setting [1], 8.68 nM; (input ligand: none) 15.1 nM.

On to “AAAUGUUGUAAGGAUAUUGAAUAAGAAAACUUACGAGAAGGUGCGACAUGAGGAUCACCCAUGUUCCCAAAGGG [Alacar 2] (Eterna round: R97, puzzle: Exclusion 6)”, for which the “apparent KD of MS2 coat protein” value amounted to 31.5 nM (input ligand: FMN 200 uM) and 30.4 nM (input ligand: none).

The values above are taken from the supplement of paper PMC9170038.
